Assay results published in publication PMC8423358 (Immunity, 2021).

Target: DPP9, short isoform (DPP9S), co-expressed with CARD8 for cryo-EM (UniProt Q86TI2-1 1-863)
Assay: cryo-EM structure

Chain of DPP9, short isoform (DPP9S), co-expressed with CARD8 for cryo-EM (Q86TI2 whole entry, canonical isoform): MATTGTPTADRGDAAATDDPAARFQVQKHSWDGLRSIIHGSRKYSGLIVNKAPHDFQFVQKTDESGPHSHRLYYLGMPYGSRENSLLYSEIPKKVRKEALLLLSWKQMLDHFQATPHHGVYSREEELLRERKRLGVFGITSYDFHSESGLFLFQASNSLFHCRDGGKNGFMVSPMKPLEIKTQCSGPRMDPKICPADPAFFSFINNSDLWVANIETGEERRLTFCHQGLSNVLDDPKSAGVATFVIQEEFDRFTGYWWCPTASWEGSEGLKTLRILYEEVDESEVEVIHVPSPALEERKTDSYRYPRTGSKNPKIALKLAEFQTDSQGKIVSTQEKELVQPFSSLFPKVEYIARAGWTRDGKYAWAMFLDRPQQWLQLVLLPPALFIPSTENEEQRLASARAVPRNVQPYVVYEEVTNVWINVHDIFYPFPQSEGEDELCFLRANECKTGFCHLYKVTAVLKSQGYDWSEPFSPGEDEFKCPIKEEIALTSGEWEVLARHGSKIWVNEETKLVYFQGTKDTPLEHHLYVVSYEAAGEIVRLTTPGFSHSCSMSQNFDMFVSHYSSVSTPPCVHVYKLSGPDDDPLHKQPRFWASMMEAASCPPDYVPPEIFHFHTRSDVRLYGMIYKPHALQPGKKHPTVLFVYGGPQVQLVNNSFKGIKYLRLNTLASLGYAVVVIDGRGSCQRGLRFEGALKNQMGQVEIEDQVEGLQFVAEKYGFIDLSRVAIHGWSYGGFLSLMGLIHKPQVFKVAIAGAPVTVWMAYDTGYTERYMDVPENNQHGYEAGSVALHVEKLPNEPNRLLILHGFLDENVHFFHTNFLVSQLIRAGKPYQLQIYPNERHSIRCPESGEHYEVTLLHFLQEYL

Row | binding result | Binder
1 | binds | Full-length CARD8 (T60 isoform), molecule A of the CARD8-DPP9 ternary complex (natural protein, human, UniProt Q9Y2G2-5 1-537, looked up) MEKKECPEKSSSSEEELPRRDSGSSRNIDASKLIRLQGSRKLLVDNSIRELQYTKTGIFFQAEACVTNDTVYRELPCVSETLCDISHFFQEDDETEAEPLLFRAVPECQLSGGDIPSVSEEQESSEGQDSGDICSEENQIVSSYASKVCFEIEEDYKNRQFLGPEGNVDVELIDKSTNRYSVWFPTAGWYLWSATGLGFLVRDEVTVTIAFGSWSQHLALDLQHHEQWLVGGPLFDVTAEPEEAVAEIHLPHFISLQAGEVDVSWFLVAHFKNEGMVLEHPARVEPFYAVLESPSFSLMGILLRIASGTRLSIPITSNTLIYYHPHPEDIKFHLYLVPSDALLTKAIDDEEDRFHGVRLQTSPPMEPLNFGSSYIVSNSANLKVMPKELKLSYRSPGEIQHFSKFYAGQMKEPIQLEITEKRHGTLVWDTEVKPVDLQLVAASAPPPFSGAAFVKENHRQLQARMGDLKGVLDDLQDNEVLTENEKELVEQEKTRQSKNEALLSMVEKKGDLALDVLFRSISERDPYLVSYLRQQNL
2 | binds | CARD8-S297A (autoproteolytic-deficient), full length, for cryo-EM (natural protein, human, UniProt Q9Y2G2-5 1-537, looked up) MEKKECPEKSSSSEEELPRRDSGSSRNIDASKLIRLQGSRKLLVDNSIRELQYTKTGIFFQAEACVTNDTVYRELPCVSETLCDISHFFQEDDETEAEPLLFRAVPECQLSGGDIPSVSEEQESSEGQDSGDICSEENQIVSSYASKVCFEIEEDYKNRQFLGPEGNVDVELIDKSTNRYSVWFPTAGWYLWSATGLGFLVRDEVTVTIAFGSWSQHLALDLQHHEQWLVGGPLFDVTAEPEEAVAEIHLPHFISLQAGEVDVSWFLVAHFKNEGMVLEHPARVEPFYAVLESPSFALMGILLRIASGTRLSIPITSNTLIYYHPHPEDIKFHLYLVPSDALLTKAIDDEEDRFHGVRLQTSPPMEPLNFGSSYIVSNSANLKVMPKELKLSYRSPGEIQHFSKFYAGQMKEPIQLEITEKRHGTLVWDTEVKPVDLQLVAASAPPPFSGAAFVKENHRQLQARMGDLKGVLDDLQDNEVLTENEKELVEQEKTRQSKNEALLSMVEKKGDLALDVLFRSISERDPYLVSYLRQQNL
